# Data: the nanobody polyreactivity screen of Harvey et al. (2022)
# Experiment: yeast display, Sf9 membrane polyspecificity reagent, FACS + sequencing; frameworks hold sequencing errors
# How it was run: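 Sorting gates, low and high (top ~1%), were placed on anti-HA fluorescence to track expression and on streptavidin fluorescence to track reagent binding. A clone's polyreactivity label is taken from the gate it came out of. The reagent was 10% biotinylated, detergent-solubilized Sf9 membrane, applied for 1 hour at 4 °C to galactose-induced yeast display cells.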
sequence,measurement,value
QVQLVESRGGLLQAGGSLRLSCAASGFTFRQYTMGWYRQAPGKERELVAGITSSGTRTYYADSVKGRFTISRDNAKNTVYLQMNSLKPEDTAVYYCATYSRWDYGYWGQGTQVTVSS,polyreactivity (PSR sort gate),high polyreactivity
QVQLVESRGGLVQAAGSLRLSCAASGGTFDINAMGWYRQAHGKEREFVAAISSYDDGTYYADSVKGRFTISRDNAKNTVYLQMNSLKPEDTAVYYCAAEGYYDYLYRHYYWGQGTLVTVSS,polyreactivity (PSR sort gate),low polyreactivity
QVQLVESRGGLVQAGGSLRLICAASANNYRYAMGWYRQAPAKEREFVAAISRGGSTFYADSVKGRFTISRDNAKNTVYEQMNRLKPEDSAVFYCDKERYNVYYYSGQGTQVTVSS,polyreactivity (PSR sort gate),high polyreactivity
QVQLVESRGGLVQAGGSLRLISAASGSSFLSYAMGWYRQAPGKERELVAAITGSGGNTYYADSVKGRFTISRDNAKNTVYLQMNSLIPEDTAVYYCAARAPTWAGTYGYWGQGTQVTVSS,polyreactivity (PSR sort gate),high polyreactivity
QVQLVESRGGLVQAGGSLRLSCAACGLIFTRNAMGWYSAAPGKERELVAAISRSGGTTYYADSVKGRFTISRDNAKNTVYLQMNSLKPEDTAVYYCAAGSWWVIGGSVSYWYNYWGQGTQVTVSS,polyreactivity (PSR sort gate),high polyreactivity
QVQLVESRGGLVQAGGSLRLSCAASGFIFLGNAMGWYRQAPGKERELVASISRGGSTNYADSVKGRFTISRDNAKNTVYLQMNSLKPEDTAVYYCAADLSDKFGYWGQGTQVTVSS,polyreactivity (PSR sort gate),low polyreactivity
QVQLVESRGGLVQAGGSLRLSCAASGFIFLPYAMGWYRQAPGKERELVATINSGDSTYADSVKGRFTISRDNAKNTVYLQMNSLKPEDTAVNYCNAYWLVVPVDLDYWGQGTQVTVSS,polyreactivity (PSR sort gate),low polyreactivity
QVQLVESRGGLVQAGGSLRLSCAASGFSFAYYAMGWYTQAPGIERELVAGISAGYGSTYYADSVKGRFTISRDNAKNTVYLQMNSLKPEDTAVYYCAADTSSTSINGDIYDYEYWGQGTQVTVSS,polyreactivity (PSR sort gate),low polyreactivity
QVQLVESRGGLVQAGGSLRLSCAASGFTFWFYAMGWYRQAPGKERELVAAISNAGGTNYADSVKGRFTISRDNAKYTVYLQMNSLKPEDTAVYYCAAAWPHWGDLGGTEWYLFYYWGQGTQVTVSS,polyreactivity (PSR sort gate),low polyreactivity
QVQLVESRGGLVQAGGSLRLSCAASGITFGRNTMGWYRQAPGKERELVAAIDSGGNTYAESVKGRFTISRDNAKKTVYFQMNSLKPEDTAVYYCAVDGGEFSSYGYWGQGSQVTVSS,polyreactivity (PSR sort gate),low polyreactivity
QVQLVESRGGLVQAGGSLRLSCAASGITFILYAMGCYRQAAWKERELVASITSGGSTDYADSVKERFTISGDNAKNTVYLQMNSLKPEDTAVYYCNAAARGSSFDYWGQGTQVTVSS,polyreactivity (PSR sort gate),low polyreactivity
QVQLVESRGGLVQAGGSLRLSCAASGITFYVNDMGWYRQEPGTERELVAAISYRGGSTYYADSVKGRFTISRDNAKNTVYLQMNSLKPEDTAVYYCAADYNYWSPHRDDYWGQGTQVTVSS,polyreactivity (PSR sort gate),low polyreactivity
QVQLVESRGGLVQAGGSLRLSCAASGRTFGRYAMGWYRQAPGKERELVAAINRGGSTKYADSVKGRFTISRDNAKNTVYLQMNSLKPEDTAVYYCAKDRHPALHYDYWGQGTQVTVSS,polyreactivity (PSR sort gate),low polyreactivity
QVQLVESRGGLVQAGGSLRLSCAASGRTFVPYAMGWYIQAPGKERELVAAISYSGDSTYYADSVKGRFTISRDNAKNTVYLQLNSLKPEDTAVYYCAAPSYFRMGYWGQGTQVTVSS,polyreactivity (PSR sort gate),low polyreactivity
QVQLVESRGGLVQAGGSLRLSCAASGSIFIYNAMGWYRQAPGKERELVAANSSSGGSTYYADSVKGRFTNSRDNEKNTVYLQMNSQNPEDTAVYYCAARTYYVRGLRGRPGMDYWGQGTQVTVSS,polyreactivity (PSR sort gate),low polyreactivity
QVQLVESRGGLVQAGGSLRLSCAASGSIFSWYTMGWSRQAPGKERELVARITTSGGTPRYADSVKGRFTISRDNAKNTVYLQMNSLKPEDTAVYYCAADRSPYWRGYGRYNYWGQGTQVTVSS,polyreactivity (PSR sort gate),high polyreactivity
QVQLVESRGGLVQAGGSLRLSCAASGSTFPGYAMGWYRQPPGKERELVAAINWRGASTYYADSVKGRFTMSRDNAKNTVYLQMNSLKPEDTAVYYCAGKYNHVTDEYEYWGQGTQVTVSS,polyreactivity (PSR sort gate),high polyreactivity
QVQLVESRGGLVQAGGSLRLSCAASGSTFVRNAMGWYRQAPGKERELVAAISRSGGRTYYADSVMGRFTISRDNAKNTVYLQMNSLKPDDTAVYYCAKKRSKAISFDYWGQGTQVTVSS,polyreactivity (PSR sort gate),high polyreactivity
QVQLVESRGGLVQAGGSLRLSCAASRFYTMGWYRQAPGKERELVAAISWSGGDTYYADSVKGRFTISRDNAKNTVYLQMNSLKPDDTAVYYCAKKTIGSYVHEPYYYWGQGTQVTVSS,polyreactivity (PSR sort gate),low polyreactivity
QVQLVESRGGLVQAGGSLRLSCAASVSTFSDYSIGWYRQATGKERELVAGITGGGGTYYADSVKGRFTISRDNAKNTVYLQMNSLKPEDTAVYYCAAGRRHGFGYWGQGTQVTVSS,polyreactivity (PSR sort gate),low polyreactivity
QVQLVESRGGLVQAGGSLRLSCPDSGYIFFTNSMGWYRQEPGKERELVAAISSAGRTKYADSVKGRFTISRDNAKNTVYLQMNSLKPEDTAVYYCNKAFYYLWGTGYDYWGQGTQVTVSS,polyreactivity (PSR sort gate),low polyreactivity
QVQLVESRGGLVQAGGSLRLSFPDSGSTYVKNAMGWYRHAPGKERELVARISYSGGSTYADSVKGRFTISRDNAKNTVYLQMNSLKPEDSAVYYCNARTHNWWDGDGVYSQSLYDYWGQGTQVTVSS,polyreactivity (PSR sort gate),low polyreactivity
QVQLVESRGGLVQAGGSLRLSSAASGRTFRSYVMGWYTPAPGKERQLVAAITRSGGSTYYADSVKGRFTISRDNAKNTVYLQMNSLKPEDTAVYYCATDRWYYYPDYYPYGEYDYWGQGTQVTVSS,polyreactivity (PSR sort gate),low polyreactivity
QVQLVESRGGLVQAGGSLRLSYAASGYFFRYNSMGWYRQAPGTERELVAAMSRGGTTYYADSVTGRFTISRDNAMNTVYLQMNSLKPEDTEVYYCAAGRKVQSRRYGYWGQGTQVTVSS,polyreactivity (PSR sort gate),high polyreactivity
QVQLVESRGGLVQAGGSLRLTCAASGSTFTHYAMGWYRQAPGKERELVAAISSGGGSTYYADSVKGRFTISRDNAKNTVYVQMNSLKPEDTAVYYCAVRSQFRAWRFYYWGQGTQVNVSS,polyreactivity (PSR sort gate),high polyreactivity
QVQLVESRGGLVQAGGSVRLSFAASGRILKYNAMGWYRQAPGKERELVAAISYRGGSTYYADSVKGRFTISRDNAKNTVYLQMNSLKPEDTAVYYCAALTESTSYGYWGQGTQVTVSS,polyreactivity (PSR sort gate),low polyreactivity
QVQLVESRGRLVQAVGSLRLSCAASGFTFDSYPMGWYRHAPRKEMEFVAGITDLGDYTYYADSVKGRFTISRDTAKNTVFLQMKSLKPEDTEVYYCNDTTGYKHAWRCENGYWGQGTQVTVSS,polyreactivity (PSR sort gate),low polyreactivity
QVQLVESSGGLVQAGGSLRLSCAASGRTFSRNAMGWYRQAPGKERELVAAITYSGGTTYYADSVKGRFTISRDNAKNTVYLQMNSLKPEDTAVYYCATPSRKSGVGYPSYNYWGQGTQVTVSS,polyreactivity (PSR sort gate),high polyreactivity
QVQLVESSGGLVQAGGSLRLSCADSGIIFQNYEMGWYRQAPGKDRELVAAITGSGGSTYYADSVKGRFTISRDNAKNTVYLQMNSLKPEDTAVDYCNADWEYYGKSDYWGQGTQVTVAS,polyreactivity (PSR sort gate),low polyreactivity
QVQLVESSGGLVQAGGSLRLSCAHSGIIFYCYAMGCYRHSPGNLRELVAAISNNGGSTYPDSVKGRFTISRDNAKNTVYLQMNSLKPEDTAVYYGDAHPTGGVGFDAYYWGQGTQVTVSS,polyreactivity (PSR sort gate),low polyreactivity
QVQLVESSGGLVQAGGSLSLSCADSGIIFYRYAMGWYIQAQGQERELVAAITWSGVSTSYADSVKGRFTISRDNAKNTVSIQMNSLKPEDTAVYYCNKDPGTLYGDMDSWGQGTQVTVSS,polyreactivity (PSR sort gate),low polyreactivity
QVQLVESVGCLVQAGGSLRLSCATSGSIFRYYTMGWYRQPPGKERELVARISSSGSTNYADSVKGRFTISRDNGKNTVYLQMNSLKPEDTAVYYCAARGFSWAGYFYWGQGTQVTVSS,polyreactivity (PSR sort gate),low polyreactivity
QVQLVESVGGIVQAGGSLRLSCAASGRTFYVYAMGWYRQARGKERELVASIRWRGSTYYADSVKGRFTISRDNAKNTVYLKMNSLKPEDTAVYYCAARYPYELGFDYWGQGTQVTVSS,polyreactivity (PSR sort gate),low polyreactivity
QVQLVESVGGLLQAGGSLRLSCAASGSIFDVYTMGWYRQAPGKVRELFAAINTGGGSTYYADSVKGRFTISRDNAKNTVYCQMNSLKPEVTAVYYCAASVYHYGPLYYWGQGTQVTVSS,polyreactivity (PSR sort gate),low polyreactivity
QVQLVESVGGLVLAGGSLRLSCAASGSIFIVNAMGWYRQAPGKERELVAAISGRGGNTNYADSVKGRFTISRDNAKNTVYLQMNSLKPEDTAVYYCAARHTRDYDYWGQGTQVTVSS,polyreactivity (PSR sort gate),low polyreactivity
QVQLVESVGGLVQAGCSLRLSCAASGSTFEVYAMGWYRQAPGKESELVATITWSGGSTYYADSVKGRFTISRDNAKTTVYLQMNSLKPEDTAVYYCNAVIRYYFWGKYYLYYYWGQGTQVTVSS,polyreactivity (PSR sort gate),high polyreactivity
QVQLVESVGGLVQAGGILRLSCGASGRTFTGYTMRWYRQEPGKERELVATISRRGRSTYYADSVKGRFTISRDNAKNTVYLQMNSLKPEDTAVYYCAAEKPRAVYFEYDYWGLGTQVTVSS,polyreactivity (PSR sort gate),high polyreactivity
QVQLVESVGGLVQAGGRLRLSCAASGSTFRYYAMGRYRPATGKESELVAAISRSGGSTYYADSVKGRFTISRDNAKNTVYLQMNSLKTEDTAVYYSNGRYYTFYSIYDYWGQGTQVTVSS,polyreactivity (PSR sort gate),high polyreactivity
QVQLVESVGGLVQAGGSLLLSCAASGFTFGPYAMGWYRQAPGKERELVAAISRSGGSTYYSDSVKGRFTISRYNAKNTVYLQLNSLKPEDTAVYYCAACSAYLWGQGTQVTVSS,polyreactivity (PSR sort gate),low polyreactivity
QVQLVESVGGLVQAGGSLRLICAASGSIFGVYAMGWYRQAPGKERELVAVIRWRGGSTYYADSVKGRFTISRDYAKNTVFLQMNILKPEDTAVYYCAARLHIVVATYDRRYDYWGQGTQVTVSS,polyreactivity (PSR sort gate),low polyreactivity
QVQLVESVGGLVQAGGSLRLICAASGSIFVPNTMGWYRQAPGKERELVAAINISGGNTYYADSVKGRFTISRDNAKNTVYLQMNSLKPEDTAVYYCAAVWFKVWSFAGDWGQGTQVTVSS,polyreactivity (PSR sort gate),low polyreactivity
QVQLVESVGGLVQAGGSLRLICAASGSTFPSYAMGWYRQAPGKEREVVAAINSGGGTNYADSVKGRFTISRDNAKYTVYLQMNSLKPEDTAVYYCAKSRYDYTKTEGGYWGQGTQVTVSS,polyreactivity (PSR sort gate),low polyreactivity
QVQLVESVGGLVQAGGSLRLSCAASAFNFDYNAMGWYRQAPGKERELVAVISSSGSRTYYADSVKGRFTISRDNAKNTVYLQMNSLKPEDTAVYYCAAARIGTLDYWGQGTQVTVSS,polyreactivity (PSR sort gate),high polyreactivity
